Experimental data reported in patent publication US20260144882A1 (BIO THERA SOLUTIONS, published 2026).

T1: human Nectin-4 extracellular antigen hNectin-4-His (human, UniProt Q96NY8 32-349)
T1 construct: C-terminal 8xHis tag included
T1 sequence: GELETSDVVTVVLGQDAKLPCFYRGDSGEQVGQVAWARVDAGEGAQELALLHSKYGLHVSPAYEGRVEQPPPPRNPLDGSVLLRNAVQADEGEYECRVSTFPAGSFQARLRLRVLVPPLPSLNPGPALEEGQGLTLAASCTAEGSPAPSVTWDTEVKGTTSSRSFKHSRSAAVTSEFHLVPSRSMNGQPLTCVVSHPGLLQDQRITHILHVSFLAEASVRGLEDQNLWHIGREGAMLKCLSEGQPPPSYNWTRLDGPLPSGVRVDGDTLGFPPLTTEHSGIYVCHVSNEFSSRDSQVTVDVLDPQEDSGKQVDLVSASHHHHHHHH

B1: 10F4-2F11 scFv (scFv, V domains shown)
VH: EVQLVESGGGLVQPGGSLRLSCAASGYNFTSYDMSWVRQAPGKGLEWVSGIKTGGGSARYADSVKGRFTISRDNSKNTLYLQMNSLRAEDTAVYYCAREYSDVVDYVSVRTPLDYWGQGTLVTVSS
VL: DIQMTQSPSSLSASVGDRVTITCRASQGISSYLAWYQQKPGKAPKLLIYAASSLQSGVPSRFSGSGSGTDFTLTISSLQPEDFATYYCQQHYTTPPTFGQGTKVEIKR
notes: phage clone supernatant
B2: 10F4-1B9 scFv (scFv, V domains shown)
VH: EVQLVESGGGLVQPGGSLRLSCAASGFNFDNYYMSWVRQAPGKGLEWVSSIYQTDASIFYADSVKGRFTISRDNSKNTLYLQMNSLRAEDTAVYYCAREYSDVVDYVSVRTPLDYWGQGTLVTVSS
VL: DIQMTQSPSSLSASVGDRVTITCRASQGISSYLAWYQQKPGKAPKLLIYAASSLQSGVPSRFSGSGSGTDFTLTISSLQPEDFATYYCQQHYTTPPTFGQGTKVEIKR
notes: phage clone supernatant
B3: 10F4-1E1 scFv (scFv, V domains shown)
VH: EVQLVESGGGLVQPGGSLRLSCAASGDIFGNYWMSWVRQAPGKGLEWVSSIDASSGNRFYADSVKGRFTISRDNSKNTLYLQMNSLRAEDTAVYYCAREYSDVVDYVSVRTPLDYWGQGTLVTVSS
VL: DIQMTQSPSSLSASVGDRVTITCRASQGISSYLAWYQQKPGKAPKLLIYAASSLQSGVPSRFSGSGSGTDFTLTISSLQPEDFATYYCQQHYTTPPTFGQGTKVEIKR
notes: phage clone supernatant
B4: 10F4-1C7 scFv (scFv, V domains shown)
VH: EVQLVESGGGLVQPGGSLRLSCAASGDSFDNYWMSWVRQAPGKGLEWVSAIDTHSDNSFYADSVKGRFTISRDNSKNTLYLQMNSLRAEDTAVYYCAREYSDVVDYVSVRTPLDYWGQGTLVTVSS
VL: DIQMTQSPSSLSASVGDRVTITCRASQGISSYLAWYQQKPGKAPKLLIYAASSLQSGVPSRFSGSGSGTDFTLTISSLQPEDFATYYCQQHYTTPPTFGQGTKVEIKR
notes: phage clone supernatant
B5: 10F4-3 scFv (scFv, V domains shown)
VH: EVQLVESGGGLVQPGGSLRLSCAASGFSFGDFAMSWVRQAPGKGLEWVSVIDGHTAYNSYADSVKGRFTISRDNSKNTLYLQMNSLRAEDTAVYYCAREYSDVVDYVSVRTPLDYWGQGTLVTVSS
VL: DIQMTQSPSSLSASVGDRVTITCRASQGISSYLAWYQQKPGKAPKLLIYAASSLQSGVPSRFSGSGSGTDFTLTISSLQPEDFATYYCQQHYTTPPTFGQGTKVEIKR
notes: phage clone supernatant
B6: 10F4-5 scFv (scFv, V domains shown)
VH: EVQLVESGGGLVQPGGSLRLSCAASGFIFDGYDMSWVRQAPGKGLEWVSVIKDHGGYKFYADSVKGRFTISRDNSKNTLYLQMNSLRAEDTAVYYCAREYSDVVDYVSVRTPLDYWGQGTLVTVSS
VL: DIQMTQSPSSLSASVGDRVTITCRASQGISSYLAWYQQKPGKAPKLLIYAASSLQSGVPSRFSGSGSGTDFTLTISSLQPEDFATYYCQQHYTTPPTFGQGTKVEIKR
notes: phage clone supernatant
B7: 10F4-2G2 scFv (scFv, V domains shown)
VH: EVQLVESGGGLVQPGGSLRLSCAASGYNFTDYDMSWVRQAPGKGLEWVSSIIASGSGNYYADSVKGRFTISRDNSKNTLYLQMNSLRAEDTAVYYCAREYSDVVDYVSVRTPLDYWGQGTLVTVSS
VL: DIQMTQSPSSLSASVGDRVTITCRASQGISSYLAWYQQKPGKAPKLLIYAASSLQSGVPSRFSGSGSGTDFTLTISSLQPEDFATYYCQQHYTTPPTFGQGTKVEIKR
notes: phage clone supernatant
B8: 10F4-2H5 scFv (scFv, V domains shown)
VH: EVQLVESGGGLVQPGGSLRLSCAASGYIFTNYWMSWVRQAPGKGLEWVSSIDQGSGNIFYADSVKGRFTISRDNSKNTLYLQMNSLRAEDTAVYYCAREYSDVVDYVSVRTPLDYWGQGTLVTVSS
VL: DIQMTQSPSSLSASVGDRVTITCRASQGISSYLAWYQQKPGKAPKLLIYAASSLQSGVPSRFSGSGSGTDFTLTISSLQPEDFATYYCQQHYTTPPTFGQGTKVEIKR
notes: phage clone supernatant

Target: T1, human Nectin-4 extracellular antigen …
Assay: ELISA, phage scFv supernatant 1:50

Question: Which OD value does the source give for B1 here?
Answer: 1.46 OD

Question: For B2, which OD value is on record?
Answer: 1.5 OD

Question: How did the OD value turn out when B3 was run?
Answer: 1.63 OD

Question: With B4 as the binder, how does the OD value read?
Answer: 1.57 OD

Question: With B5 as the binder, how does the OD value read?
Answer: 1.32 OD

Question: How did the OD value turn out when B6 was run?
Answer: 1.31 OD

Question: Which OD value does the source give for B7 here?
Answer: 1.49 OD

Question: How did the OD value turn out when B8 was run?
Answer: 1.44 OD
